# Data published in paper PMC8683410 (Translational Psychiatry, 2021).
# “And” between values parts separate entries of the source, which are not always exact repeats. Equal entries are not always repeated.
# T1: His6-tagged human DISC1 C-region (residues 691-836) (human), Q9NRI5
# T1 chain: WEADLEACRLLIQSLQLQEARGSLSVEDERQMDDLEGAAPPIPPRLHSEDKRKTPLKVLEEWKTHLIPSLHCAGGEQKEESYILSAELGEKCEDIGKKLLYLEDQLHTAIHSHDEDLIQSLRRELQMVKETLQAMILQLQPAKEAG
# T2: lissencephaly 1 (LIS1) (UniProt P43034 1-410)
# T2 construct: lissencephaly 1 (LIS1); source: E. coli C43 (DE3), purified (Ni2+-NTA, Superdex 200 SEC)
# T2 sequence (looked up): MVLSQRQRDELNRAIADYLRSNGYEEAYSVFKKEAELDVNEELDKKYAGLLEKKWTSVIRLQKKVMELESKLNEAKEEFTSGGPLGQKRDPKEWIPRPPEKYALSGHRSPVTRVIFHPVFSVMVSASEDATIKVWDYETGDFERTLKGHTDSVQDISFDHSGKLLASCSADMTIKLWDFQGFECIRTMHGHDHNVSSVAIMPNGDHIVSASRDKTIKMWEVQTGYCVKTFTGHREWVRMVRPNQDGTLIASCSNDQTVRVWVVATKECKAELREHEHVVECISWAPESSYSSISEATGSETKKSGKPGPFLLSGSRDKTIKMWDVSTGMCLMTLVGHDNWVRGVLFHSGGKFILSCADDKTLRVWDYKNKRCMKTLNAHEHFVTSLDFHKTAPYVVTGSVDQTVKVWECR
# T3: MBP-His6-fused human DISC1 C-region (residues 691-836) (human), Q9NRI5
# T3 chain: T1 chain
# B1: His6-tagged human DISC1 C-region (residues 691-836), Q9NRI5 691-836 (domain or fragment)
# chain: T1 chain
# B2: His6-tagged human DISC1 C-region (residues 691-836) (domain or fragment, UniProt Q9NRI5 691-836, looked up)
# chain: T1 chain
# notes: disrupted in schizophrenia 1 (DISC1), human, C-region, residues 691-836 of full-length human DISC1; Vector pESPRIT002; Theoretical mass of the tagged protein 19.4 kDa; for SPR it was incubated at 4 °C for two weeks (oligomer/fibril); also called His6-C-region; His-C-region; source: E. coli BL21 (DE3) pLysE T1R, purified (Co2+-NTA, Superdex 200 SEC); not shown: His6, N-terminal, kept
# B3: MBP-His6-fused human DISC1 C-region (residues 691-836), Q9NRI5 691-836 (domain or fragment)
# chain: T1 chain
# B4: MBP-His6-fused human DISC1 C-region (residues 691-836) (domain or fragment, UniProt Q9NRI5 691-836, looked up)
# chain: T1 chain
# notes: disrupted in schizophrenia 1 (DISC1), human, C-region, residues 691-836 of full-length human DISC1; Cloned in pET-15b; Used freshly prepared to represent the monomer, and after two months at 4 °C as oligomer/fibril, in SPR; also called MBP-C-region; MBP-C region; source: E. coli (DE3) C43, purified (Co2+-NTA, amylose column); not shown: MBP, N-terminal, kept; His6, N-terminal, kept
# Legend:
# [1] = target: T1, His6-tagged human DISC1 C-region …; test: dynamic light scattering; His6-C-region, 10-90 µM at 37 °C; samples centrifuged at 21,000 x g before measurement; settings: remark: other sources report otherwise
# [2] = target: T1, His6-tagged human DISC1 C-region …; test: negative-stain transmission electron microscopy; 10 µM protein on carbon-coated copper grids, 1% uranyl acetate; 2D classification and 3D reconstruction (RELION); settings: remark: other sources report otherwise
# [3] = target: T1, His6-tagged human DISC1 C-region …; test: dynamic light scattering; critical concentration of C-region monomers/oligomers in equilibrium with the fibril suspension, taken as the detection limit of the instrument; 1D crystallization model (KF = 1/[C]); settings: remark: other sources report otherwise
# [4] = target: T1, His6-tagged human DISC1 C-region …; test: ITC; no titration: heat flow of the spontaneous association of the protein solution monitored in the cell (iTC-200, 300 rpm); 10-50 µM at 37 °C, 10 µM at 20-60 °C; dH from the peak area normalised to the protein amount; settings: remark: other sources report otherwise
# [5] = target: T2, lissencephaly 1 (LIS1); test: SPR; oligomeric/fibrillar C-region (His-C-region incubated at 4 °C for two weeks, MBP-C-region for two months) amine-coupled to a CM5 chip (250 RU); analytes 0.75-10 µM without regeneration; 25 °C, PBS pH 7.4; equilibrium responses fitted with Hill's equation; apparent affinities; settings: both partners purified
# [6] = target: T4, NDE-like 1 (NDEL1) (UniProt Q9GZM8 1-345); test: as above; settings: both partners purified
# [7] = target: T3, MBP-His6-fused human DISC1 C-region …; test: dynamic light scattering; MBP-tagged C-region in solution at different temperatures (Fig. S1); settings: remark: other sources report otherwise
# [8] = target: T4, NDE-like 1 (NDEL1); test: SPR; freshly prepared MBP-C-region (representing the monomer) amine-coupled to a CM5 chip (250 RU); analytes 0.75-10 µM without regeneration; 25 °C, PBS pH 7.4 (20 mM Na-phosphate, 150 mM NaCl); equilibrium responses fitted with Hill's equation; settings: both partners purified
# [9] = target: T2, lissencephaly 1 (LIS1); test: as above; settings: both partners purified
# [10] = target: T4, NDE-like 1 (NDEL1); test: as above; settings: both partners purified; remark: listed apart in the source
# T4 sequence (Q9GZM8 whole entry, the tested form may be a part): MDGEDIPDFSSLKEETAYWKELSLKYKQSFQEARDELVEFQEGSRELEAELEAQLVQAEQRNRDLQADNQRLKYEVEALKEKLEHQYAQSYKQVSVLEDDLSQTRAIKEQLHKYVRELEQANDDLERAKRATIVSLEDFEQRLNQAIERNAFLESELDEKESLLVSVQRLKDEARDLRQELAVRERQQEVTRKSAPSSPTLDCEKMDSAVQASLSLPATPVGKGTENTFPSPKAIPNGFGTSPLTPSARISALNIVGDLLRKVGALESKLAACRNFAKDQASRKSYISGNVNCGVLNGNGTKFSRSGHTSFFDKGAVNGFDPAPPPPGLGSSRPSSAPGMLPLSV
binder,measurement,setting,value
B1,stoichiometry N,[1],4
same,stoichiometry N,[2],4 and 5 and 6
same,critical concentration (1/KF of fibril formation),[3],750 nM
same,dH,[4],-71.2 kcal/mol
B2,Kd,[5],0.031 µM
same,Kd,[6],13 µM
B3,stoichiometry N,[7],4
B4,Kd,[8],28 µM
same,Kd,[9],0.071 µM
same,Kd,[10],20 µM
same,Kd,[5],0.031 µM
same,Kd,[6],14 µM
